These are literature values, as cited in paper PMC6023760.

The series concerns the target Thrombin exosite 2 (Homo sapiens) (UniProt P00734).

In the case of “Fibrin γ′-chain γ′ site (from UniProt P02679)”, the Kd (in general, the concentration at which binding is half-saturated) was 200 nM.
